Values joined by “and” are separate entries in the source; they are usually repeats but may differ in a detail not shown here. Equal values may be shown once.

For this assay, the target named is T1, Vβ17 on human CD8+ T cells (human).
T1 construct: whole, on cells; Polyclonal donor T cells; also called Vβ17+ CD8+ T cells; M1-stimulated T-cells
In words: flow cytometry on FLU MP 58 stimulated CD8+ T cells, anti-human IgG4 Fc-PE.

T1 sequence (A0A075B6N1 22-114): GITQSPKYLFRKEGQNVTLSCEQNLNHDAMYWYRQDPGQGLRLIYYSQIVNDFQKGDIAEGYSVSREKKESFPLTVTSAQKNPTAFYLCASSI

B1: VB11 (anti-Vβ17/anti-CD123) bispecific antibody (bispecific antibody, human IgG4 S228P, kappa, F234A L235A)
heavy 1: QVQLQESGPGLVKPSETLSLTCTVSGYSITSGYFWNWIRQPPGKGLEWIGYISYDGSNNYNPSLKSRVTISRDTSKNQFSLKLSSVTAADTAVYYCASPSPGTGYAVDYWGQGTLVTVSSASTKGPSVFPLAPCSRSTSESTAALGCLVKDYFPEPVTVSWNSGALTSGVHTFPAVLQSSGLYSLSSVVTVPSSSLGTKTYTCNVDHKPSNTKVDKRVESKYGPPCPPCPAPEAAGGPSVFLFPPKPKDTLMISRTPEVTCVVVDVSQEDPEVQFNWYVDGVEVHNAKTKPREEQFNSTYRVVSVLTVLHQDWLNGKEYKCKVSNKGLPSSIEKTISKAKGQPREPQVYTLPPSQEEMTKNQVSLSCAVKGFYPSDIAVEWESNGQPENNYKTTPPVLDSDGSFFLVSRLTVDKSRWQEGNVFSCSVMHEALHNRFTQKSLSLSLGK
light 1: DIQMTQSPSSLSASVGDRVTITCRSSQSLVHSNGNTYLHWYQQKPGKAPKFLIYKVSNRFSGVPSRFSGSGSGTDFTLTISSLQPEDFATYYCSQSTHVPFTFGQGTKLEIKRTVAAPSVFIFPPSDEQLKSGTASVVCLLNNFYPREAKVQWKVDNALQSGNSQESVTEQDSKDSTYSLSSTLTLSKADYEKHKVYACEVTHQGLSSPVTKSFNRGEC
heavy 2: EVQLVQSGAEVKKPGESLKISCKGSGYSFTSYWISWVRQMPGKGLEWMGIIDPSDSDTRYSPSFQGQVTISADKSISTAYLQWSSLKASDTAMYYCARGDGSTDLDYWGQGTLVTVSSASTKGPSVFPLAPCSRSTSESTAALGCLVKDYFPEPVTVSWNSGALTSGVHTFPAVLQSSGLYSLSSVVTVPSSSLGTKTYTCNVDHKPSNTKVDKRVESKYGPPCPPCPAPEAAGGPSVFLFPPKPKDTLMISRTPEVTCVVVDVSQEDPEVQFNWYVDGVEVHNAKTKPREEQFNSTYRVVSVLTVLHQDWLNGKEYKCKVSNKGLPSSIEKTISKAKGQPREPQVYTLPPSQEEMTKNQVSLWCLVKGFYPSDIAVEWESNGQPENNYKTTPPVLDSDGSFFLYSRLTVDKSRWQEGNVFSCSVMHEALHNHYTQKSLSLSLGK
light 2: EIVLTQSPGTLSLSPGERATLSCRASQSVSSSYLAWYQQKPGQAPRLLIYGASSRATGIPDRFSGSGSGTDFTLTISRLEPEDFAVYYCQQDYGFPWTFGQGTKVEIKRTVAAPSVFIFPPSDEQLKSGTASVVCLLNNFYPREAKVQWKVDNALQSGNSQESVTEQDSKDSTYSLSSTLTLSKADYEKHKVYACEVTHQGLSSPVTKSFNRGEC
notes: also called Vβ17 and CD123 bispecific
For the molecule B1, the EC50 was 1.35 µg/mL and 9 nM.

B2: VB13 (Vβ17×Null) bispecific antibody (bispecific antibody, human IgG4 S228P, kappa, F234A L235A)
heavy 1: QVQLQESGPGLVKPSETLSLTCTVSGYSITSGYFWNWIRQPPGKGLEWIGYISYDGSNNYNPSLKSRVTISRDTSKNQFSLKLSSVTAADTAVYYCASPSPGTGYAVDYWGQGTLVTVSSASTKGPSVFPLAPCSRSTSESTAALGCLVKDYFPEPVTVSWNSGALTSGVHTFPAVLQSSGLYSLSSVVTVPSSSLGTKTYTCNVDHKPSNTKVDKRVESKYGPPCPPCPAPEAAGGPSVFLFPPKPKDTLMISRTPEVTCVVVDVSQEDPEVQFNWYVDGVEVHNAKTKPREEQFNSTYRVVSVLTVLHQDWLNGKEYKCKVSNKGLPSSIEKTISKAKGQPREPQVYTLPPSQEEMTKNQVSLSCAVKGFYPSDIAVEWESNGQPENNYKTTPPVLDSDGSFFLVSRLTVDKSRWQEGNVFSCSVMHEALHNRFTQKSLSLSLGK
light 1: DIQMTQSPSSLSASVGDRVTITCRSSQSLVHSNGNTYLHWYQQKPGKAPKFLIYKVSNRFSGVPSRFSGSGSGTDFTLTISSLQPEDFATYYCSQSTHVPFTFGQGTKLEIKRTVAAPSVFIFPPSDEQLKSGTASVVCLLNNFYPREAKVQWKVDNALQSGNSQESVTEQDSKDSTYSLSSTLTLSKADYEKHKVYACEVTHQGLSSPVTKSFNRGEC
heavy 2: not shown
light 2: not shown
notes: also called Vβ17XNULL; Vβ17 x Null
Turning to B2, the EC50 is 2.8 µg/mL and 18.7 nM.

Source of the values: patent US20260234252A1 (Janssen / Centocor, published 2026).
